According to PMC10397247:

T1: 4H3907-bA
T1 chain: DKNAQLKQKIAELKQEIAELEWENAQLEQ

T2: 4H3601-bA
T2 chain: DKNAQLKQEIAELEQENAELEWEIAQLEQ

T3: 4H4038-bA
T3 chain: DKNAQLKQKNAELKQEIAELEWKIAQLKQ

T4: 4H3907-bH
T4 chain: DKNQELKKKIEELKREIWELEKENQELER

T5: 4H4038-bH
T5 chain: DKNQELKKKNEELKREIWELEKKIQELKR

T6: 4H3601-bH
T6 chain: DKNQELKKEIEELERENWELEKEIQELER

T7: 4H797-bH
T7 chain: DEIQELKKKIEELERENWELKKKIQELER

T8: P7A-bA
T8 chain: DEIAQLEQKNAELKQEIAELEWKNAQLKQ

T9: P4A-bA
T9 chain: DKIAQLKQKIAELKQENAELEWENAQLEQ

T10: P9A-bA
T10 chain: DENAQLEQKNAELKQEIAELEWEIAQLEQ

T11: P8A-bA
T11 chain: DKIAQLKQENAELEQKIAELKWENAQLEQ

T12: P5A-bA
T12 chain: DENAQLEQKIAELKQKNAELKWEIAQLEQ

T13: P3A-bA
T13 chain: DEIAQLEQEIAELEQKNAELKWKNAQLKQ

T14: P6A-bA
T14 chain: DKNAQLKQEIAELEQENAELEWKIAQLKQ


Columns and labels:
Assay in all cases: two-hybrid library CCNG1;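 also: natural log of median RNA to DNA barcode read ratio; higher means stronger binding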
[1] = molecular target: T1, 4H3907-bA
[2] = molecular target: T2, 4H3601-bA
[3] = molecular target: T3, 4H4038-bA
[4] = molecular target: T4, 4H3907-bH
[5] = molecular target: T5, 4H4038-bH
[6] = molecular target: T6, 4H3601-bH
[7] = molecular target: T7, 4H797-bH
[8] = molecular target: T8, P7A-bA
[9] = molecular target: T9, P4A-bA
[10] = molecular target: T10, P9A-bA
[11] = molecular target: T11, P8A-bA
[12] = molecular target: T12, P5A-bA
[13] = molecular target: T13, P3A-bA
[14] = molecular target: T14, P6A-bA

Binder | interaction score [1] | interaction score [2] | interaction score [3] | interaction score [4] | interaction score [5] | interaction score [6] | interaction score [7] | interaction score [8] | interaction score [9] | interaction score [10] | interaction score [11] | interaction score [12] | interaction score [13] | interaction score [14]
DKNAQLKQEIAELEQENAELEWEIAQLEQ [4H3601-bA] | -1.15 | -0.859 | -1.28 | – | – | – | – | – | – | – | – | – | – | –
DKNQELKKEIEELERENWELEKEIQELER [4H3601-bH] | – | – | – | -0.759 | -1.44 | -1.34 | -1.38 | – | – | – | – | – | – | –
DEIAQLEQENAELEQENAELEWEIAQLEQ [P1A-bA] | – | – | – | – | – | – | – | -0.804 | -1.08 | -1.21 | -0.805 | -1.1 | -1.12 | -1.21
DEIAQLEQEIAELEQKNAELKWKNAQLKQ [P3A-bA] | – | – | – | – | – | – | – | -1.05 | 2.18 | 0.237 | 0.146 | -0.684 | -1.07 | 1.19
